Measurements taken from patent publication US20050106100.
Values joined by “and” are separate entries in the source; they are usually repeats but may differ in a detail not shown here. Equal entries are not always repeated.

Key:
[1] = target: T1, Ac-P-Cha-G˜Hphe-Cit-L-Ahxh-Ac[C14] (not fully specified)
T1 chain: PXGXXL

[2] = target: T2, Ac-P-Cha-G˜LL-Ahxh-Ac[C14] (not fully specified)
T2 chain: PXGLL

[3] = target: T3, Ac-P-Cha-G˜Smc-HA-Ahxh-Hynic (not fully specified)
T3 chain: PXGXHA

[4] = target: T4, Ac-P-Cit-Aib˜Hphe-LA-Ahxh-Hynic (not fully specified)
T4 chain: PXXXLA

[5] = target: T5, Ac-P-Cit-Cit-LTA-Ahxh-Hynic
T5 chain: PXXLTA

[6] = target: T6, Ac-P-Cit-G˜Chg-LA-Ahxh-Hynic (not fully specified)
T6 chain: PXGXLA

[7] = target: T7, Ac-P-DArg-R˜LTA-Ahxh-Hynic (not fully specified)
T7 chain: PRRLTA

[8] = target: T8, Ac-P-NLeu-G˜LL-Ahxh-Ac[C14] (not fully specified)
T8 chain: PXGLL

[9] = target: T9, Ac-P-NMeArg-R˜LTA-Ambh-Hynic (not fully specified)
T9 chain: PRRLTA

[10] = target: T10, Ac-PHG˜Hphe-L-Ahxh-Hynic (not fully specified)
T10 chain: PHGXL

[11] = target: T11, Ac-PL-DAla˜LL-Ahxh-Hynic (not fully specified)
T11 chain: PLALL

[12] = target: T12, Ac-PL-NLys-LL-dLeu-Ahxh-Ac[C14]
T12 chain: PLXLLL

[13] = target: T13, Ac-PL-NLys˜Ahp-YL-Ahxh-Ac[C14] (not fully specified)
T13 chain: PLXXYL

[14] = target: T14, Ac-PL-NLys˜LL-Ahxh-Ac[C14] (not fully specified)
T14 chain: PLXLL

[15] = target: T15, Ac-PL-Sar˜LL-Ahxh-Ac[C14] (not fully specified)
T15 chain: PLXLL

[16] = target: T16, Ac-PLG-LYV-Ahxh-Ac[C14]
T16 chain: PLGLYV

[17] = target: T17, Ac-PLG˜Cit-LA-Ahxh-Ac[C14] (not fully specified)
T17 chain: PLGXLA

[18] = target: T18, Ac-PLG˜Hphe-KL-Ahxh-Hynic
T18 chain: PLGXKL

[19] = target: T19, Ac-PLG˜Hphe-OL-Ambh-Hynic
T19 chain: PLGXXL

[20] = target: T20, Ac-PLG˜Hphe-OLEE-Ahx-Hynic
T20 chain: PLGXXLEE

[21] = target: T21, Ac-PLG˜Hphe-OLR-Ahxh-Hynic
T21 chain: PLGXXLR

[22] = target: T22, Ac-PLG˜Hphe-RL-Ahxh-Hynic
T22 chain: PLGXRL

[23] = target: T23, Ac-PLG˜Hphe-RLA-Ahxh-Hynic
T23 chain: PLGXRLA

[24] = target: T24, Ac-PLG˜Hphe-RLT-Ahxh-Hynic
T24 chain: PLGXRLT

[25] = target: T25, Ac-PLG˜Hphe-YLR-Ahxh-Hynic
T25 chain: PLGXYLR

[26] = target: T26, Ac-PLG˜LAL-Ahxh-Hynic
T26 chain: PLGLAL

[27] = target: T27, Ac-PLG˜LL-Ahxh-Ac[C14] (not fully specified)
T27 chain: PLGLL

[28] = target: T28, Ac-PLG˜LLA-Ahxh-Hynic (not fully specified)
T28 chain: PLGLLA

[29] = target: T29, Ac-PLG˜LR-Ahxh-Hynic (not fully specified)
T29 chain: PLGLR

[30] = target: T30, Ac-PLG˜LRL-Ahxh-Hynic (not fully specified)
T30 chain: PLGLRL

[31] = target: T31, Ac-PLG˜LWA-Ahxh-Hynic (not fully specified)
T31 chain: PLGLWA

[32] = target: T32, Ac-PLG˜LYA-Ahxh-Hynic (not fully specified)
T32 chain: PLGLYA

[33] = target: T33, Ac-PLG˜LYL-Ahxh-Hynic (not fully specified)
T33 chain: PLGLYL

[34] = target: T34, Ac-PLG˜LYQ-Ahxh-Ac[C14] (not fully specified)
T34 chain: PLGLYQ

[35] = target: T35, Ac-PLG˜LYS-Ahxh-Ac[C14] (not fully specified)
T35 chain: PLGLYS

[36] = target: T36, Ac-PLG˜LYT-Ahxh-Ac[C14] (not fully specified)
T36 chain: PLGLYT

[37] = target: T37, Ac-POG˜Hphe-L-Nle-Ahxh-Hynic
T37 chain: PXGXLX

[38] = target: T38, Ac-POG˜Hphe-LA-Ahxh-Hynic
T38 chain: PXGXLA

[39] = target: T39, Ac-POG˜Hphe-Smc-T-Ahxh-Hynic
T39 chain: PXGXXT

[40] = target: T40, Ac-PRG˜Hphe-LA-Ahxh-Hynic
T40 chain: PRGXLA

[41] = target: T41, Ac-PRG˜LLT-Ahxh-Hynic
T41 chain: PRGLLT

[42] = target: T42, Ac-PRQ˜IT-Ahxh-Hynic
T42 chain: PRQIT

[43] = target: T43, Ac-PRQ˜ITA-Ahxh-Hynic
T43 chain: PRQITA

[44] = target: T44, Ac-PRR˜Cha-TA-Ambh-Hynic
T44 chain: PRRXTA

[45] = target: T45, Ac-PRR˜LTA-Ahxh-Hynic
T45 chain: PRRLTA

[46] = target: T46, Ac-VRW˜LTA-Ahxh-Hynic (not fully specified)
T46 chain: VRWLTA

[47] = target: T47, H-γ-DGlu-PLG-LYT-Ahxh-Hynic (not fully specified)
T47 chain: EPLGLYT

[48] = target: T48, Hynic-Ahx-PLG˜Hphe-OLEE-OH
T48 chain: XPLGXXLEE

[49] = target: T49, Hynic-ff-Ahx-PLG˜Hphe-OLEE-OH
T49 chain: FFXPLGXXLEE

[50] = target: T50, Hynic-fff-Ahx-PLG˜Hphe-OLEE-OH
T50 chain: FFFXPLGXXLEE

[51] = target: T51, NLys-PLG˜Hphe-YL-Ambh-Hynic
T51 chain: XPLGXYL

[52] = target: T52, Piv-PLG˜LYT-Ahxh-Hynic
T52 chain: PLGLYT

B1: human MMP-9 (protein)
chain: MRTPRCGVPDLGRFQTFEGDLKWHHHNITYWIQNYSEDLPRAVIDDAFARAFALWSAVTPLTFTRVYSRDADIVIQFGVAEHGDGYPFDGKDGLLAHAFPPGPGIQGDAHFDDDELWSLGKGVVVPTRFGNADGAACHFPFIFEGRSYSACTTDGRSDGLPWCSTTANYDTDDRFGFCPSERLYTQDGNADGKPCQFPFIFQGQSYSACTTDGRSDGYRWCATTANYDRDKLFGFCPTRADSTVMGGNSAGELCVFPFTFLGKEYSTCTSEGRGDGRLWCATTSNFDSDKKWGFCPDQGYSLFLVAAHEFGHALGLDHSSVPEALMYPMYRFTEGPPLHKDDVNGIRHLYGPRPEPEPRPPTTTTPQPTAPPTVCPTGPPTVHPSERPTAGPTGPPSAGPTGPPTAGPSTATTVPLSPVDDACNVNIFDAIAEIGNQLYLFKDGKYWRFSEGRGSRPQGPFLIADKWPALPRKLDSVFEERLSKKLFFFSGRQVWVYTGASVLGPRRLDKLGLGADVAQVTGALRSGRGKMLLFSGRRLWRFDVKAQMVDPRSASEVDRMFPGVPLDTHDVFQYREKAYFCQDRFYWRVSSRSELNQVDQVGYVTYDILQCPED
- Kcat/Km [1]: > 500000 M⁻¹ s⁻¹
- Kcat/Km [2]: 180000 M⁻¹ s⁻¹
- Kcat/Km [3]: > 250000 M⁻¹ s⁻¹
- Kcat/Km [4]: 0 M⁻¹ s⁻¹
- Kcat/Km [5]: 29300 M⁻¹ s⁻¹
- Kcat/Km [6]: 20700 M⁻¹ s⁻¹
- Kcat/Km [7]: 0 M⁻¹ s⁻¹
- Kcat/Km [8]: 0 M⁻¹ s⁻¹
- Kcat/Km [9]: 792 M⁻¹ s⁻¹
- Kcat/Km [10]: 4430 M⁻¹ s⁻¹
- Kcat/Km [11]: 0 M⁻¹ s⁻¹
- Kcat/Km [12]: 0 M⁻¹ s⁻¹
- Kcat/Km [13]: 0 M⁻¹ s⁻¹
- Kcat/Km [14]: 195000 M⁻¹ s⁻¹
- Kcat/Km [15]: 143000 M⁻¹ s⁻¹
- Kcat/Km [16]: > 500000 M⁻¹ s⁻¹
- Kcat/Km [17]: 34000 M⁻¹ s⁻¹
- Kcat/Km [18]: 93400 M⁻¹ s⁻¹
- Kcat/Km [19]: 57700 M⁻¹ s⁻¹
- Kcat/Km [20]: 1990 M⁻¹ s⁻¹
- Kcat/Km [21]: 22100 M⁻¹ s⁻¹
- Kcat/Km [22]: 168000 M⁻¹ s⁻¹
- Kcat/Km [23]: 57700 M⁻¹ s⁻¹
- Kcat/Km [24]: 103000 M⁻¹ s⁻¹
- Kcat/Km [25]: 243000 M⁻¹ s⁻¹
- Kcat/Km [26]: 7140 M⁻¹ s⁻¹
- Kcat/Km [27]: 134000 M⁻¹ s⁻¹
- Kcat/Km [28]: 226000 M⁻¹ s⁻¹
- Kcat/Km [29]: 143000 M⁻¹ s⁻¹
- Kcat/Km [30]: 167000 M⁻¹ s⁻¹
- Kcat/Km [31]: > 500000 M⁻¹ s⁻¹
- Kcat/Km [32]: 512000 M⁻¹ s⁻¹
- Kcat/Km [33]: 95000 M⁻¹ s⁻¹
- Kcat/Km [34]: 658000 M⁻¹ s⁻¹
- Kcat/Km [35]: > 500000 M⁻¹ s⁻¹
- Kcat/Km [36]: > 500000 M⁻¹ s⁻¹
- Kcat/Km [37]: 52000 M⁻¹ s⁻¹
- Kcat/Km [38]: > 500000 M⁻¹ s⁻¹
- Kcat/Km [39]: 85400 M⁻¹ s⁻¹
- Kcat/Km [40]: > 500000 M⁻¹ s⁻¹
- Kcat/Km [41]: 73300 M⁻¹ s⁻¹
- Kcat/Km [42]: 1700 M⁻¹ s⁻¹
- Kcat/Km [43]: 3520 M⁻¹ s⁻¹
- Kcat/Km [44]: 1580 M⁻¹ s⁻¹
- Kcat/Km [45]: 33500 M⁻¹ s⁻¹
- Kcat/Km [46]: 29900 M⁻¹ s⁻¹
- Kcat/Km [47]: 59400 M⁻¹ s⁻¹
- Kcat/Km [48]: 2980 M⁻¹ s⁻¹ and 1670 M⁻¹ s⁻¹
- Kcat/Km [49]: 6680 M⁻¹ s⁻¹
- Kcat/Km [50]: 1740 M⁻¹ s⁻¹
- Kcat/Km [51]: 264000 M⁻¹ s⁻¹
- Kcat/Km [52]: 281000 M⁻¹ s⁻¹
